Experimental findings from patent publication US20240166738A1 (Alector, published 2024) are described below.

Substitutions are numbered along the chain they refer to.

To fix the notation:
B1: TM-30 (antibody, V domains shown)
VH: QVQLQQSGPELVKPGASVKLSCKASDNTFTNYDVNWVRQRPGQGLEWIGWIYPRDGTTIYNEKFKGRATLTVDTSSSTAYMELHSLTSEDSAVFFCARTLPQAMDYWGQGTSVTVSS
VL: DVLMTQSPLSLPVSLGDQVSISCRSSQTIVHRNGNTYLEWYLQKPGQSPKLLIYKVSNRFSGVPDRFSGSGSGTDFTLKISRVEAEDLGVYYCFQGSHLPWTFGGGTKLEIK
B2: TM-22 (antibody, V domains shown)
VH: QVQLQQSGPELVKPGASVKISCKASGYRFTSYYIHWVKQRPGQGLEWIGWIYPGNGITNYNEKFKGKATLTADTSSSTAYMQLSSLTSEDSAVYYCASPYYGIRNCYFDVWGTGTTVTVSS
VL: B1 VL with S7T, Q18H, V19A, S26G, T28S, R32S, V90I, L99V
B3: TM-1 (antibody, V domains shown)
VH: QVQLQQSGAELVRPGTSVKVSCKASGYAFTNYLIEWVKQRPGQGLEWIGVINPGSGGTKYNEKLKGKATLTADKSSSTAYMQLSSLTSVDSAVYFCARRGYTIYDFYAMDYWGQGTSVTVSS
VL: B1 VL with S7T, Q18H, V19A, T28S, H31Y, R32N, G96V, L99V, W101F, G105S
B4: TM-54 (antibody, V domains shown)
VH: QVQMQQSGPVLVKPGASVTLSCKASGYTFTTYDLNWVKQRPGQGLEWIGWIYPRGGSTEYNEKFKGKATLTVDTSSSTAYMELHSLTSEDSAVYFCAKYSIYAMDYWGQGTSVTVSS
VL: B1 VL with S7T, V19A, T28S, R32G, L99V, I111M
B5: TM-19 (antibody, V domains shown)
VH: DVQLQQSGAELVRPGASVKLSCTASGFNIKDYYMYWVKQRPEQGLEWIGRIDPEDGDTENAPKFRGMATMTADTSSNTAYLQLNSLTSEDTAVYYCTTRIGNLYHVMDYWGHGTSVTVSS
VL: B1 VL with S7T, V19A, T28S, R32S, S48A, Y54D, S57F, L99V, W101F, G105S
B6: TM-46 (antibody, V domains shown)
VH: QVQLQQSGADLVKPGASVKISCKASGYAFSSFWMNWVKLRPGKGLEWIGQIYPGDGDTDYNGKFKDKATLTADTSSNTAYMQLSRLTSEDSAVYFCARGDGFSYFDYWGQGTILTVSS
VL: QIVLTQSPVIMSASPGERVTMTCCASSRVNYMHWYQQKSGSYPKRWIYDTSKLASGVPGRFSGSGSGTSYSLTISSMEAEDAATYYCQQWSSNPPTFGGGTKLEIK
B7: TM-5 (antibody, V domains shown)
VH: QVQLQQSGTELARPGASVKVSCKASGYIFTTYGITWVKQRGGQGLEWIGEIYPRSDNTYYNEKFKDKATLTADKSSSTAYMELRSLTSEDSAVYFCARSKGSGTGDYWGQGTTVTVSS
VL: DIQMTQSPASLSASVGETVTITCRASENIYIYLAWYQQKQGKTPQLLVYNGKMLAENVPSRFSGSGSGTQFSLKINSLQPEDFGSYYCQHHYGSPPAFGAGTKLELK
B8: TM-18 (antibody, V domains shown)
VH: EVRLQQSGPELVKPGASVKISCKTSGYTFTDYYMNWVKQSHGKSLEWIVNINPNNGDAFYNQKFKGKATLTVDKSSNTAYLDLRSLTSEDSAVYYCAREGQLRLRRVYAMDYWGQGTSVTVSS
VL: DIVLAQSPASLAVSLGQRATISCRASKSVSISVYTYVHWYQQKPGQPPKLLIYLASNLESGVPARFSGSGSGTDFTLNIHPVEEEDAATYYCQHSRELPYTFGGGTKLEIK
B9: TM-77 (antibody, V domains shown)
VH: QIQLQQSGAELVRPGASVKLSCKASGYTFTDYEMHWVKQTPVHGLEWIGVIDPETGGTAYNQMFKGKATLTADKSSSTAYMDLRSLTSEDSAVYYCVKYGIEGYWGQGTTLTVSS
VL: DVVMTQIPLTLSVTLGQPASISCKSSQSLFHSNGKTYLNWLLQRPGQSPKLLIYMVSKLESGVPDRFSGSGSGTDFTLKISRVEAEDLGVYYCLQVTHFPLTFGAGTKLELK
B10: TM-79 (antibody, V domains shown)
VH: EVQLQQSGPELVKPGASVKMSCKASGYTFTNYVMHWLKQKPGQGLEWIAHITPHNDGTKYNEKFKGKATLTSDRSSSTAYMELNSLTSEDSAIYYCARSGQFGRGDYFHYWGQGTTVTVSS
VL: DIVLTQSPASLAVSLGQRATISCRASKSVSTSGSIYIHWYQQKPGQPPKLLIYLTSNLESGVPARFSGSGSGTDFTLNIHPVEEEDAATYYCQHSGELPWTFGGGARLEIK
B11: TM-34 (antibody, V domains shown)
VH: EVQLVESGGGLVKPGGSLKLSCAASGFSFSDSGMDWVRQAPEKGLEWFAYISSGSSTTHYADTVKGRFIISRDNAKNTLFLQMTSLRSEDTAMYYCVRRDGNYWYFDVWGTGTTVTVSS
VL: QIVLSQSPVILSASPGEKVTMTCRATSSVTYMHWYQLKPGSSPKPWIYATSNLASGVPARFSGSGSGTSYSLTISRVEAEDAATYYCQQWSSNPYTFGGGTKLEIK
B12: TM-83 (antibody, V domains shown)
VH: QVQLQQPGTELVKPGALVKLSCKASGYTFTTYWIHWVKQRPGQGLEWIGNINPSNGNTKNNERFKTKATLTVDKSSSTAYMQLSSLTSEDSAVYYCVRGDYYGTSYPFWGQGTLVTVSS
VL: DVVMTQTPLSLPVSLGDQASISCRSSQSLVHSNGITYLHWYLQKPGQSPKLLIYKVSNRFSGVPDRFSGSGSGTDFTLKISRVEAEDLGVYFCSQSTHVPYTFGGGTKLEIK
B13: TM-15 (antibody, V domains shown)
VH: QVQLQQPGAEFVRPGASVKLSCKASGYTFTNYWITWVKQRPGHGLEWIGDIYPGSGNSNYNESFKRKATLTVDTSSSTAYMHLSSQTSEDSAVYFCARKAYGGFPYWGQGTLVTVSA
VL: DIQMTQSPASLSVSVGETVTITCRVSENIYNNLAWYQQKQEKSPQLLVFAATNLADGVPSRFSGSGSGTQFSLKINSLQSEDFGTYYCQHFWDTPFTFGSGTKLEIK
B14: TM-13 (antibody, V domains shown)
VH: QVQLQQSGAELVKPGASVKMSCKASGYTFTTFPIEWMKQSHGKGLEWIGNFHPYNDDTKYNEKFKGKATLTVDKSSSTVYLDLSRLTSDDSAVYYCARYFYGGMDYWGQGTSVTVSS
VL: DIQMTQSPASLSVSVGETVTITCRASENIYSSLGWYQQKQGESPQLLVFAATNLADGVPSRFSGSGSGTQYSLKINSLQSEDFGTYYCQHLWSIPWTFGGGTRLEIK
B15: TM-84 (antibody, V domains shown)
VH: B14 VH with S40N, G44S, D73E, D82E
VL: B14 VL with Q37H, E42K, I94V, R103K
B16: TM-88 (antibody, V domains shown)
VH: EAQLQQSGPVLVKPGASVKMSCKTSGYTFTDYYINWVKQSHGKSLEWIGVINPYSGATYYTQKFKGKATLTVDKSSSTAYMELNSQTSEDSAVYYCARGGYDYGHWYFDVWGTGTTVTVSS
VL: ETTVTQSPASLSMAIGEKVTIRCITSSDIDDHMNWYRQKPGEPPEFLISEGNALRPGVPSRFSSSGYGTDFIFTIENILSEDVADYYCLQSDNLPLTFGAGTKLELK
B17: TM-51 (antibody, V domains shown)
VH: QVQLQQPGAELVKPGASVKLSCKASGYTFTTYWIDWVKQRPGQGLEWIGNMFPGSSRTNYNEKFKSRATLTVDTSSSTAYMQLSSLTSDDSAVYYCARKEGLWTYGYDGGAWFAYWGQGTLVTVSA
VL: DIVMSQSPSSLAVSVGEKVTMSCKSSQSLRNSRTRKNYLAWYQQKPGQSPKLLIYWASTRESGVPDRFTGSGSGTDFTLTISSVQAEDLAIYYCKQSYNLLTFGAGTKLELK
B18: TM-80 (antibody, V domains shown)
VH: QVQLQQPGAELVKPGASVKLSCKASGYTFTTFWMHWVKQRPGQGLEWIGNIDPSDSETHYNQEFKDKATLTVDRSSNTAYMQLSSLTSEDSAVYYCARSSNWDNFDYWGQGTAVTVSS
VL: DIVMTQAAPSVPVTPGESVSISCRSSQSLLHVNGHTYLYWFLQRPGQSPQLLIYRMSNLASGVPDRFSGSGSGTVFTLRISRVETEDVGIYYCMQHLQYPFTFGSGTKLEIK
B19: TM-42 (antibody, V domains shown)
VH: QVQLQQSGAELAKPGASVKLSCKASGYTFTNYWMHWVKKRPGQGLEWIGYINPSSGYTKYNQKFKDKATLTADKSSNTAYMQLSSLTYEDSAVYYCTREGGSISDWYFDVWGTGTTVTVSS
VL: B18 VL with V11L, Q27K, V32S, H35N, V75A, T85A, I90V, Q98E, F101Y, S105G
B20: TM-26 (antibody, V domains shown)
VH: QVQLQQSGAELIRPGTSVKVSCKASGYAFTNYLIEWVKKRPGQGLEWIGVINPGSGITNYNEKFKGKATLTADKSSSTAYMQLSSLTSEDSAVYFCARSDFITTVVADYWGQGTTVTVSS
VL: DIVVTQTPLSLPVSFGDQVSISCRSSQSLTNYYGNTYLSWYLHKPGQSPQLLIYGISNRFSGVPDRFSGSGSGTDFTLKISTIKPEDLGMYYCLQGTHQPRTFGGGTKLEIK
B21: TM-39 (antibody, V domains shown)
VH: HVQRQQSGTELAKPGASVKLSCKTSGYTFTDYWMHWIKQRPGQGLEWIGFINPSSGYTKYNQNFKDKATLTADKSSSTAYMQLSSLTYEDSAVFYCAREAGSISDWYFDVWGTGTTVTVSS
VL: DIVMTQAAPSIPVTPGESVSISCRSSKTLLNSNGNTYLYWFLQRPGQPPQLLIYRMSNLASGVPDRFSGSGSGTAFTLRISRVEAEDVGVYYCMQHLDYPYTFGGGTQLEIK
B22: TM-7 (antibody, V domains shown)
VH: EVQLQQSGPVLVKPGPPVKISCKASGFTFTDYYIHWVKLSHGKSLEWIGLVYPYNGDTDYNQKFKGKATLTVDTSSSTAYMELNSLTSEDSAVYYCARTYYANSPDYWGQGTTVTVSS
VL: DIVMTQSPSSLSVSAGEKVTMSCKSSQSLLNSGNQRNYLAWYQQKPGQPPKLLIYGASTRESGVPDRFTGSGSGTDFTLTISNVQAEDLAVYYCQNDHSYPLTFGAGTKLELK
Also: test concentration or dose not given here.

For the assay, the target named is human TMEM106B (human, UniProt Q9NUM4 2-274). Put plainly: cell-based or functional assay.
As for B1, the “% Protection from CPE” value was found to be 104%.
As for B2, the “% Protection from CPE” value worked out at 4.4%.
For B3, the “% Protection from CPE” value came to 6.4%.
As to B4, the “% Protection from CPE” value stood at 68.1%.
Consider B5, for which the “% Protection from CPE” value turned out to be 99.8%.
Turning to B6, the “% Protection from CPE” value was 4.7%.
As to B7, the “% Protection from CPE” value turned out to be 63.3%.
As for B8, the “% Protection from CPE” value is 100%.
B9: the “% Protection from CPE” value was found to be 4.7%.
Regarding B10, the “% Protection from CPE” value was 4.5%.
Turning to B11, the “% Protection from CPE” value worked out at 4.1%.
Consider B12, for which the “% Protection from CPE” value is 4.3%.
Regarding B13, the “% Protection from CPE” value is 63.5%.
As to B14, the “% Protection from CPE” value turned out to be 81.8%.
The same measure for B15: 53.1%; for B16: 78.5%.
For B17, the “% Protection from CPE” value came out at 5.4%.
B18: the “% Protection from CPE” value turned out to be 78%.
As to B19, the “% Protection from CPE” value came to 28.4%.
Consider B20, for which the “% Protection from CPE” value is 4.3%.
Turning to B21, the “% Protection from CPE” value is 4.2%.
Then B22, with 15.8%.
